Results taken from patent US20250092135A1 (NANJING LEADS BIOLABS, published 2025).
Each block holds one binder with its values, some of them ahead of it.

How the values were obtained:
[1] = target: T1, human MUC16 protein (ECT_TM huMuc16) on 293T cells (human); experiment: cell binding on 293T/hMUC16 cells, read as MFI (the legend calls it ELISA); EC50 table under the plot, unit from the axis Conc.(nM)
T1 chain: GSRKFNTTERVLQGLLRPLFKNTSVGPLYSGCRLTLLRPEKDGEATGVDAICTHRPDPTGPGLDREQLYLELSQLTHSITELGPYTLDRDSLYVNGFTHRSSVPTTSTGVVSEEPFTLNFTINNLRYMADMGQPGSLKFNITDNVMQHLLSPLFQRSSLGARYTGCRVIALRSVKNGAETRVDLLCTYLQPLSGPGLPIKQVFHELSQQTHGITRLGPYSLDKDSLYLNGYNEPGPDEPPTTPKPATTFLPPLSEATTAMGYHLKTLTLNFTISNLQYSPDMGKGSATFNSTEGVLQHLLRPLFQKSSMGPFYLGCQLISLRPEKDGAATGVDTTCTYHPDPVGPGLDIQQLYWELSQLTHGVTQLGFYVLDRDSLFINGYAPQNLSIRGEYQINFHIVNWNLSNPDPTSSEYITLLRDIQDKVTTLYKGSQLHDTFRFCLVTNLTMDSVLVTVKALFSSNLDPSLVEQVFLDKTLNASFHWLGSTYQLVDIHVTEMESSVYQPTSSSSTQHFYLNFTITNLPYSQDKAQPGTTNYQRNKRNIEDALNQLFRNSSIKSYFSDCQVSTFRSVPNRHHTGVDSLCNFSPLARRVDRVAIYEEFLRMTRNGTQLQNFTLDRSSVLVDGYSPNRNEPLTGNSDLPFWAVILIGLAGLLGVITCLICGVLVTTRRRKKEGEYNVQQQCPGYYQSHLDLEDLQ

[2] = target: T1, human MUC16 protein (ECT_TM huMuc16) on …; experiment: flow cytometry, 293T/hMUC16 cells, PE anti-human IgG Fc secondary, MFI; EC50 table under the plot, unit from the axis Conc.(nM)
Procedure: The serially diluted anti-human MUC16 antibodies (at an initial concentration of 200 nM, 4-fold dilution, 8 points in total) obtained in the present application were added to the cells, and the cells were incubated at 4° C. for 30 min. The cells were washed twice with PBS, and then fluorescent secondary antibody R-PE-conjugated AffiniPure Goat Anti-Human IgG, Fcγ Fragment Specific (Jackson ImmunoResearch, Cat #109-116-098) was added. The cells were incubated at 4° C. for 30 min. The cells were washed twice with PBS and then resuspended, and finally, fluorescence signals were detected using a BD Accuri C5 (BD Bioscience) flow cytometer.

[3] = target: T2, human MUC16 protein endogenously expressed on cells (human, UniProt Q8WXI7 1-14507); experiment: flow cytometry, OVCAR3 cells (endogenous human MUC16), PE anti-human IgG Fc secondary, MFI; EC50 table under the plot, unit from the axis Conc.(nM)
T2 construct: whole, on cells; also called MUC16 on OVCAR3 cells; MUC16 in ovarian carcinoma tissue
Procedure: (1) Whether the anti-CD3/anti-MUC16 bispecific antibodies in the present invention could bind to the MUC16 protein endogenously expressed on human ovarian carcinoma cells (OVCAR3) (Cell Bank of Type Culture Collection Committee of the Chinese Academy of Sciences, Cat #TCHu228) was determined by cell binding experiments.
The experiments were performed using flow cytometry. OVCAR3 cells were digested, centrifuged and collected. The cells were resuspended in a PBS solution, and seeded into a 96-well plate (Corning, Cat #3799) at 1×10⁵ cells/well. The 96-well plate was centrifuged and then the supernatant was discarded. 100 μL of the serially diluted test bispecific antibody (at a maximum concentration of 200 nM, 5-fold dilution from 100 nM, 9 concentration points in total) was added to the OVCAR3 cells. The plate was incubated at 4° C. for 30 min and centrifuged (1000 rpm, 5 min), and then the supernatant was discarded. 100 μL of PBS solution was added to each well, and the cells were washed twice. 100 μL of fluorescent secondary antibody R-PE-conjugated AffiniPure Goat Anti-Human IgG, Fcγ Fragment Specific (Jackson ImmunoResearch, Cat #109-116-098) diluted in a ratio of 1:200 was then added. The cells were incubated at 4° C. for 30 min. After the cells were washed twice with the PBS solution, 100 μL of PBS solution was added to each well to resuspend the cells, and finally, fluorescence signals were detected using a BD Accuri C5 (BD Bioscience) flow cytometer according to the manufacturer's instructions. REGN4018 was used as a positive control.

[4] = target: T3, rhesus monkey MUC16 protein (ECT_TM RhMuc16) on 293T cells (rhesus monkey); experiment: flow cytometry, 293T/rhesus MUC16 cells as printed on the sheet and in the legend (the example, paragraph 611, speaks of cynomolgus MUC16), PE anti-human IgG Fc secondary, MFI; EC50 table under the plot, unit from the axis Conc.(nM); curve still rising at the top concentration of 100 nM
T3 chain: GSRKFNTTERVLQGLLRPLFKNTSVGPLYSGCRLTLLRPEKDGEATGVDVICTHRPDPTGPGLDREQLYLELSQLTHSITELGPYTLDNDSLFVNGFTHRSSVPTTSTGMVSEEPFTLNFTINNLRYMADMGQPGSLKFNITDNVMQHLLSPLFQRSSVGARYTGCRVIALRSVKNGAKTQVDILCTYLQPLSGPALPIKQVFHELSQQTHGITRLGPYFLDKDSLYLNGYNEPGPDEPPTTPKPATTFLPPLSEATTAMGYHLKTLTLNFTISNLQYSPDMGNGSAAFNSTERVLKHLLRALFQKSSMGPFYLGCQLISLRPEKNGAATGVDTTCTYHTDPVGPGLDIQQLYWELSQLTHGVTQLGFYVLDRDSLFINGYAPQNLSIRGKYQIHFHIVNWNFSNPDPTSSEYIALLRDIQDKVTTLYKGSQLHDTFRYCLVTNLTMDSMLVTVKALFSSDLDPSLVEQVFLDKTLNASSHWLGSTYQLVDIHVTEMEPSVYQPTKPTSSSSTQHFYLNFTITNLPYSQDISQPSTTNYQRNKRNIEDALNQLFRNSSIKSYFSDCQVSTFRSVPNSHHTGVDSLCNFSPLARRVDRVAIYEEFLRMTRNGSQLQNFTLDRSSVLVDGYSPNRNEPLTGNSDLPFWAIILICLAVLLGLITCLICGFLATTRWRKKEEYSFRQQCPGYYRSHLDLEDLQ
Procedure: Referring to the flow cytometry described above, the serially diluted test bispecific antibody (at an initial concentration of 100 nM, 5-fold dilution, 9 points) was added to the cells, and the plate was incubated at 4° C. for 30 min. The cells were washed twice with PBS, and then fluorescent secondary antibody R-PE-conjugated AffiniPure Goat Anti-Human IgG, Fcγ Fragment Specific was added. The cells were incubated at 4° C. for 30 min. The cells were washed twice with PBS and then resuspended, and finally, fluorescence signals were detected using a BD Accuri C5 (BD Bioscience) flow cytometer.

- EC50 [1]: 6.67 nM
- EC50 [2]: 12.9 nM
B1: anti-MUC16 antibody 776.1(C33S) (antibody, human IgG1, kappa, L234A L235A, V domains shown)
VH: EVQLQQSGPELVKPGASVKISCKASGYTFTDYNIHWVKQSHGKILEWIGYIYPYNGVSDYNQNFKSKATLIVDNSSNTAYMELRSLTSEDSAVYYCARWDFGSGYYFDYWGQGTTLTVSS
VL: QIVLSQSPAILFASPGETVTMTCRASSSVIYMSWNQQKPGSSPKPWIYGTSTLASGVPTRFSGSGSGTSYSLTISRVEAEDAATYYCQQWSSNPFTFGSGTKLEIKR

- EC50 [1]: 2.28 nM
- EC50 [3]: 2.73 nM
- EC50 [4]: 59.4 nM
B2: humanized anti-MUC16 antibody Hu-L4H7 (antibody, human IgG1, kappa, L234A L235A, V domains shown)
VH: QVQLVQSGAEVKKPGASVKVSCKASGYTFTDYNIHWVRQAPGQGLEWMGYIYPYNGVSDYNQNFKSRVTMTTDTSTSTAYMELRSLRSDDTAVYYCARWDFGSGYYFDYWGQGTLVTVSS
VL: EIVLTQSPATLSLSPGERATLSCRASSSVIYMSWYQQKPGQAPRLLIYGTSTLASGIPARFSGSGSGTDFTLTISSLEPEDFAVYYCQQWSSNPFTFGQGTKLEIKR
notes: human IgG1 with L234A, L235A, D265A, P329A and kappa; Biotinylated in the CA125 ELISA; also called humanized MUC-16 antibody

- EC50 [3]: 4.21 nM
- EC50 [4]: 52.2 nM
B3: anti-CD3/MUC16 bispecific antibody MCH7-23L2-MCH7 (bispecific antibody, human IgG1, kappa, L234A L235A)
heavy 1: QVQLVQSGAEVKKPGASVKVSCKASGYTFTDYNIHWVRQAPGQGLEWMGYIYPYNGVSDYNQNFKSRVTMTTDTSTSTAYMELRSLRSDDTAVYYCARWDFGSGYYFDYWGQGTLVTVSSASTKGPSVFPLAPSSKSTSGGTAALGCLVKDYFPEPVTVSWNSGALTSGVHTFPAVLQSSGLYSLSSVVTVPSSSLGTQTYICNVNHKPSNTKVDKKVEPKSCEVQLVESGGGLVQPGGSLKLSCAASGFTFSTYAMNWVRQAPGKGLEWVGRIRSKYNNYATYYADSVKDRFTISRDDSKNTLYLQMNSLKTEDTAVYYCTRHGNFGNSYVSWFAYWGQGTTVTVSSGGGGSGGGGSGGGGSQAVVTQEPSLTVSPGGTVTLTCRSSTGAVTTSNYANWVQQKPGQAPRGLIGGTNKRAPGVPARFSGSLLGGKAALTLSGAQPEDEAEYFCALWYSNLWVFGGGTKLTVLGEPKSSDKTHTCPPCPAPEAAGGPSVFLFPPKPKDTLMISRTPEVTCVVVAVSHEDPEVKFNWYVDGVEVHNAKTKPREEQYNSTYRVVSVLTVLHQDWLNGKEYKCKVSNKALAAPIEKTISKAKGQPREPQVCTLPPSRDELTKNQVSLSCAVKGFYPSDIAVEWESNGQPENNYKTTPPVLDSDGSFFLVSKLTVDKSRWQQGNVFSCSVMHEALHNHYTQKSLSLSPGK
heavy 2: not shown
light: EIVLTQSPATLSLSPGERATLSCRASSSVIYMSWYQQKPGQAPRLLIYGTSTLASGIPARFSGSGSGTDFTLTISSLEPEDFAVYYCQQWSSNPFTFGQGTKLEIKRTVAAPSVFIFPPSDEQLKSGTASVVCLLNNFYPREAKVQWKVDNALQSGNSQESVTEQDSKDSTYSLSSTLTLSKADYEKHKVYACEVTHQGLSSPVTKSFNRGEC
notes: MCH7-23L2ScFv-Hole (VH-CH1-scFv-Fc) + MCH7-KIH-Knob + two light chains MCL4 LC
